# According to patent US20090053203A1:
# Molecular target: receptor for advanced glycated end products (RAGE) (human) (UniProt Q15109)
# Assay: cell-based or functional assay
# Conditions: scale: relative to saline-treated controls
# receptor for advanced glycated end products (RAGE) (human), sequence (Q15109 23-404): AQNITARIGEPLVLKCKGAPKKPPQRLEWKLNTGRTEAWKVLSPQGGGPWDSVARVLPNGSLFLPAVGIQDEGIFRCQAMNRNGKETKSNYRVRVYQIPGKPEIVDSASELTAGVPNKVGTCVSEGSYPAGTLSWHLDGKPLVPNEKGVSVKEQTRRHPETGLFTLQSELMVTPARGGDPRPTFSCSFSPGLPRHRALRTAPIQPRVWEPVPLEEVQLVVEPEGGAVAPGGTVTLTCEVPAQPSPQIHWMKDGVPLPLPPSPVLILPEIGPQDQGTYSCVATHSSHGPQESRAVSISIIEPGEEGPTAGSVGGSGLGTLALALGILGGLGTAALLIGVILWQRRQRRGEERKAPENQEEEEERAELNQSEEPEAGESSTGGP
substance,measurement,value
glycated hemoglobin (ligand),"Phospbo-PKCa/bII (T638/641) (ELISA, 293 kidney cells, 4 hr)",1.52
same,"Phospho-ATF2 (T71) (ELISA, 293 kidney cells, 4 hr)",1.61
same,"Phospho-Akt (S473) (ELISA, 293 kidney cells, 4 hr)",1.92
same,"Phospho-Akt (T308) (ELISA, 293 kidney cells, 4 hr)",1.06
same,"Phospho-ERK (T202/Y204) (ELISA, 293 kidney cells, 4 hr)",1
same,"Phospho-IRS1 (S307) (ELISA, 293 kidney cells, 4 hr)",1.56
same,"Phospho-IRS2 (S731) (ELISA, 293 kidney cells, 4 hr)",1.03
same,"Phospho-JNK (T183/Y185) (ELISA, 293 kidney cells, 4 hr)",1.38
same,"Phospho-PKCmu (S916) (ELISA, 293 kidney cells, 4 hr)",0.95
same,"Total Akt1 (ELISA, 293 kidney cells, 4 hr)",1.27
same,"Total Akt2 (ELISA, 293 kidney cells, 4 hr)",0.81
same,"Total IRS-1 (ELISA, 293 kidney cells, 4 hr)",1.07
same,"Total IRS-2 (ELISA, 293 kidney cells, 4 hr)",1.47
same,"Total collagen-IV (ELISA, 293 kidney cells, 4 hr)",1.34
